Here are results for 4 substances from publication PMC4250934.

By stoichiometry N is commonly meant a count of units in the complex or per binding partner.

Holding throughout (assay): AUC
In test [1] the target is SODA_(BSn5), C-terminal SODA domain of SOD_(BSn5) (Bacillus subtilis BSn5).
For test [2], the target named is SODA_(NG2215), NTD-deleted form of SOD_(NG2215) (SODA functional domain) (Geobacillus thermodenitrificans NG80-2).
The target of test [3] is SOD_(BSn5), Fe/Mn superoxide dismutase from Bacillus subtilis BSn5 (Bacillus subtilis BSn5).
Test [4] has as its target SOD_(NG2215), Fe/Mn superoxide dismutase (cambialistic SOD) from Geobacillus thermodenitrificans NG80-2 (Geobacillus thermodenitrificans NG80-2).

In test [1], “SODA_(BSn5), C-terminal SODA domain of SOD_(BSn5) (domain or fragment)” had a stoichiometry N of 2. Turning to “SODA_(NG2215), NTD-deleted form of SOD_(NG2215) (SODA functional domain) (domain or fragment)”, the stoichiometry N in test [2] came out at 4. “SOD_(BSn5), Fe/Mn superoxide dismutase from Bacillus subtilis BSn5 (enzyme)” returned a stoichiometry N in test [3] of 2. In test [4], “SOD_(NG2215), Fe/Mn superoxide dismutase (cambialistic SOD) from Geobacillus thermodenitrificans NG80-2 (enzyme)” returned a stoichiometry N of 4.
